From PMC12550933, “Novel Humanized Anti-HER3 Antibodies: Structural Characterization and Therapeutic Activity” (Antibodies, 2025) come the findings set out here.

As a reminder, the Kd is a measure of binding affinity in units of concentration. Lower therefore signals a tighter complex. Broadly, the koff is the first-order rate constant of dissociation. Low values mean a long-lived complex, high ones a short-lived complex. What is called kon is the rate constant with which the complex forms. A higher kon goes with faster complex formation.

What all share (settings): both partners purified
For assay [1], the target named is T1, human HER3-Fc chimeric protein (Homo sapiens, UniProt P21860).
T1 construct: human HER3 (ErbB3) part of the bought Fc chimera; also called HER3 Fc chimera protein; Recombinant human HER3/HER3-Fc chimeric protein; source: bought: R&D Systems
Put plainly: SPR; Biacore X100; HER3 Fc chimera coupled to a CM5 chip; antibodies as analytes, single-cycle kinetics, 25 °C; duplicate; KD = koff/kon. On the technique in general: In SPR one partner is held on a chip, and binding of the other changes the refractive index at the surface.

Assay [2] addresses T2, HER3 peptide #54 (15-mer of the overlapping peptide library) (Homo sapiens, UniProt P21860).
T2 construct: 15-mer of human HER3 from a library of 15-mers with 11 residues overlap; Limits worked out from the printed core and the 11-residue overlap; source: synthetic peptide (JPT Peptide Technologies)
T2 chain: QCNGHCFGPNPNQCC
Put plainly: peptide or protein array; ELISA on plates coated with 1 µg/mL of 15-mer HER3 peptides with 11 residues overlap; antibody at 1 µg/mL overnight at 4 °C.

In assay [3] the target is T3, HER3 peptide #55 (15-mer of the overlapping peptide library) (Homo sapiens, UniProt P21860).
T3 construct: 15-mer of human HER3 from a library of 15-mers with 11 residues overlap; Limits worked out from the printed core and the 11-residue overlap; source: synthetic peptide (JPT Peptide Technologies)
T3 chain: HCFGPNPNQCCHDEC
The assay is described as above.

Another assay deals with T4, Rat HER3/HER3 (HisTag) (rat, UniProt Q62799).
T4 construct: rat HER3 (ErbB3), bought recombinant protein; probably the extracellular domain (surmise); also called recombinant rat HER3; source: bought: Sinobiological
Put plainly: ELISA; plates coated with 1 µg/mL recombinant human, mouse, rat or rhesus HER3 (His tag); purified antibodies, dose-response.

A further assay has as its target T5, Mouse HER3/HER3 (HisTag) (mouse, UniProt Q61526).
T5 construct: mouse HER3 (ErbB3), bought recombinant protein; probably the extracellular domain (surmise); also called recombinant mouse HER3; source: bought: Sinobiological
The assay is described as above.

Assay [4] has as its target T6, Rhesus HER3/HER3 (HisTag) (Macaca mulatta, UniProt H9ERZ8).
T6 construct: rhesus HER3 (ErbB3), bought recombinant protein; probably the extracellular domain (surmise); also called recombinant rhesus HER3; source: bought: Sinobiological
The assay is described as above.

For assay [5], the target named is T7, Recombinant human ErbB4 chimeric protein (Homo sapiens (Human)., UniProt Q15303).
T7 construct: human ErbB4 part of the bought chimeric protein; also called HER4; source: bought: R&D Systems
Put plainly: ELISA; plates coated with 1 µg/mL recombinant EGFR, ErbB2, HER3 or ErbB4 chimeric protein; purified antibodies at 10 µg/mL (Figure 3A) or in serial dilutions on human HER3 (Figure 3B). For orientation: In an ELISA, binding on a coated surface is turned into a signal by an enzyme label.

The target in assay [6] is T8, Recombinant human ErbB2 chimeric protein (Homo sapiens (Human)., UniProt P04626).
T8 construct: human ErbB2 part of the bought chimeric protein; also called HER2; source: bought: R&D Systems
Described as above.

Assay [7] deals with T9, Recombinant human EGFR-Fc chimeric protein (Homo sapiens (Human)., UniProt P00533).
T9 construct: human EGFR part of the bought Fc chimera; also called ErbB1; HER1; source: bought: R&D Systems
Described as above.

T1 sequence (P21860 20-643, change not shown): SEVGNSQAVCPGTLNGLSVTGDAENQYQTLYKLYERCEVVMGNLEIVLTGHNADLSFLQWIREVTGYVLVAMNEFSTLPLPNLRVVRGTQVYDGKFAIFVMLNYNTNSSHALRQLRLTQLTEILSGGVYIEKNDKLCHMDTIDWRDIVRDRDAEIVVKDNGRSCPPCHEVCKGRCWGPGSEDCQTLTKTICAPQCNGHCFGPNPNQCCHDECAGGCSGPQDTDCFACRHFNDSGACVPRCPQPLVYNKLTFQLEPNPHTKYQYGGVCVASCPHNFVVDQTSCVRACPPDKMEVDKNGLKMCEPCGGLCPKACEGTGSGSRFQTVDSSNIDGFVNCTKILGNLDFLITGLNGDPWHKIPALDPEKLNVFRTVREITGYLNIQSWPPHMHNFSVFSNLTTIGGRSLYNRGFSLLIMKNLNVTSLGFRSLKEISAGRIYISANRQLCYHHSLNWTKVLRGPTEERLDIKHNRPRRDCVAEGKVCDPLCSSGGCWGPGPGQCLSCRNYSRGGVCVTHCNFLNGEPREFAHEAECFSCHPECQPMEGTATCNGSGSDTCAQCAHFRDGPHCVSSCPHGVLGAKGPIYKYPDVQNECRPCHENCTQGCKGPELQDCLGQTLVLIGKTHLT
T5 sequence (Q61526 20-641): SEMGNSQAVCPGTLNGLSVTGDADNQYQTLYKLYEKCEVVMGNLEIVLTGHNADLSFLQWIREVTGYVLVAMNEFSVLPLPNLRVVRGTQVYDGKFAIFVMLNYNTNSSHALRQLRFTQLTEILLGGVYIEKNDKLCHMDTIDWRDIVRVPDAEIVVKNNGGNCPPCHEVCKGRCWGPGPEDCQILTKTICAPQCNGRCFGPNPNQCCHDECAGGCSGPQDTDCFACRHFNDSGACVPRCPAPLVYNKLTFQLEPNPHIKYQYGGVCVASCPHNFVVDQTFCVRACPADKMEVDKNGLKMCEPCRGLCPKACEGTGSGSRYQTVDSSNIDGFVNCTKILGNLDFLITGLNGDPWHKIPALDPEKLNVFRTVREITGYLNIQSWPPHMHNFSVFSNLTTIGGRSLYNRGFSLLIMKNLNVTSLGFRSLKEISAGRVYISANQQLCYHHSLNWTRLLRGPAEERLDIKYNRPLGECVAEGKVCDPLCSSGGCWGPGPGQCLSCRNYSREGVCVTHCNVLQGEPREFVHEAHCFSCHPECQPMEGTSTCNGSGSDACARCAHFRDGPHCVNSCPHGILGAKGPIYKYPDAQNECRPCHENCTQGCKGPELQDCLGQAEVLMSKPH
T4 sequence (Q62799 20-643): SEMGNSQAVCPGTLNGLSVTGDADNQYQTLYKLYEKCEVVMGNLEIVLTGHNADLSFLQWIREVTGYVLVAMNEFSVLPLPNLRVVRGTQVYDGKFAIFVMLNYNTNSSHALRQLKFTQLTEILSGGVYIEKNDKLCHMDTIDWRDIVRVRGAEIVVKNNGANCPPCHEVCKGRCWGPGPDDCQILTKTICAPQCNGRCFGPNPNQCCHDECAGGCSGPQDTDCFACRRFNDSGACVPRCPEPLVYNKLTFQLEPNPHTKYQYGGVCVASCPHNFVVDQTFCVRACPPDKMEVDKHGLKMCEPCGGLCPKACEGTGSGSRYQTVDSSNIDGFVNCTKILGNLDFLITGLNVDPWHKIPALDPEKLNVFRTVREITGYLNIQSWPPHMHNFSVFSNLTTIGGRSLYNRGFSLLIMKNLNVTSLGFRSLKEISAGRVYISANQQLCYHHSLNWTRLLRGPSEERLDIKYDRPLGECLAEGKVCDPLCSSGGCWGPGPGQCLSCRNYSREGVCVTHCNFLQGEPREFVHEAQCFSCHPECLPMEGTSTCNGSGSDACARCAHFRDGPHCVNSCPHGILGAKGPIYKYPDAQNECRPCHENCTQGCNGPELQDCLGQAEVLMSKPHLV
T7 sequence (Q15303 26-651, change not shown): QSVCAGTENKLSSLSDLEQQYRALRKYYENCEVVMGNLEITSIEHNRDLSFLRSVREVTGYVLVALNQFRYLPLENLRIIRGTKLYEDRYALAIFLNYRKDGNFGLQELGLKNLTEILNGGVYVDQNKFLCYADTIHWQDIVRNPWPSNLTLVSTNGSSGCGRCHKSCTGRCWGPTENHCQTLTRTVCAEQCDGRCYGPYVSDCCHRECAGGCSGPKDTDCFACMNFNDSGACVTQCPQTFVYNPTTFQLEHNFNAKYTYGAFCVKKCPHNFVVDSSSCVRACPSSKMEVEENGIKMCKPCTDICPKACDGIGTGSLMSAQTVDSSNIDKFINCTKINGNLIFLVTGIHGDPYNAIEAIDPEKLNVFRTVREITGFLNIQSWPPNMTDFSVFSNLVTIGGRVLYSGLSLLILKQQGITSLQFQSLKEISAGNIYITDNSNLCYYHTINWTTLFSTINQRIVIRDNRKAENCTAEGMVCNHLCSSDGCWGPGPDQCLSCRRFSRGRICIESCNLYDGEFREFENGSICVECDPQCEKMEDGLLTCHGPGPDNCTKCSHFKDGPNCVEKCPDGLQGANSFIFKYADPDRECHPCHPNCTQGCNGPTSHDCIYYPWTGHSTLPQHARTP

B1: TK-hu A3-H1L1 humanized anti-HER3 monoclonal antibody (human IgG1, kappa) (antibody, V domains shown)
VH: QVTLRESGPALVKPTQTLTLTCTFSGFSLSTYGMGVGWIRQPPGKALEWLANIWWNDDKYYSSSLKTRLTISKDTSKNQVVLTMTNMDPVDTATYYCVQIANPYWYFDVWGQGTTVTVSS
VL: DIVMTQTPLSLSVTPGQPASISCKSSQSLLHSYGNTYLEWYLQKPGQSPQLLIYRVSNRFSGVPDRFSGSGSGTDFTLKISRVEAEDVGVYYCFQGSHVPFTFGQGTKLEIK
notes: humanized heavy chain variable region, variant H1 (germline CDR grafting of murine TK-A3); they are in PDB 9I1Q chain I (also J, K, L), which also holds CH1 of the Fab; human IgG1 constant region present in the expression vector; humanized light chain variant L1 in frame with the human kappa constant region; the whole light chain is in PDB 9I1Q chain F (also E, G, H); IgG1 kappa; also called …
The molecule B1 gave a Kd in assay [1] of 1.81 nM. Further, the koff in [1] amounted to 0.000113 s⁻¹. Also, in assay [1], the kon came to 62400 M⁻¹ s⁻¹. Also, the binding result is given as “binds” in [2]; “binds” in assay [3]; “binds” with Rat HER3/HER3 (HisTag); “binds” with Mouse HER3/HER3 (HisTag); “binds” in assay [4]; “no binding (tested: 10 µg/mL)” in assay [5]. In addition, the binding result in assay [6] and in [7] was “no binding (tested: 10 µg/mL)” throughout.
